Results on 31 sequences are retold here after the supplement of paper PMC9170038.

This series relates to MS2 coat protein. Briefly: apparent KD of MS2 coat protein; designed switch direction (-1 OFF switch, 1 ON switch): -1; higher = weaker reporter binding. The method in brief: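 Each step of the titration lasted 0.8–1.5 h at the lowest concentration and 10–20 min at the highest. The protein, SNAP-549-labelled MS2 coat protein, went from 0.7 or 1.5 nM doubling to 3 µM over RNA switches transcribed on Illumina chips by stalled E. coli RNA polymerase. Normalised cluster fluorescence was curve-fitted, and the per-design median over clusters is given as apparent KD.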

The mark [1] stands for this setting: Eterna round: R95, input ligand: microRNA oligo, concentration not stated.
Setting [2] is: Eterna round: R95, input ligand: FMN 200 uM.
The mark [3] stands for this setting: Eterna round: R95, input ligand: none.
Where [4] appears, read: input ligand: microRNA oligo, concentration not stated.

Regarding “CGCGCCUUUGUCAGGAUAUUCGGGCGAGCCCGGCCGGAGAAGGGACUUGAGGAUCACCCAAGUGACGCGAAAAC [Beenusre] (Eterna round: R97, puzzle: Brourd's mod of Exclusion 4)”, the “apparent KD of MS2 coat protein” value by setting is: (input ligand: FMN 200 uM) 20.8 nM; (input ligand: none) 20.6 nM.
With “AAUAACAGAGGAUAUACUAUUUUAUGUGUUUGUUGUUUUAAACAUGAGGAUCACCCAUGUAGAAGGCUGAAUGA [JMF 61] (puzzle: Exclusion 2)”, the “apparent KD of MS2 coat protein” value under setting [1] was 23.8 nM.
In the case of “AAAUUCAGAGGAUAUGCGCAUAGAUAAGACUUUUUUUCUUAACAUGAGGAUCACCCAUGUAGAAGGCUGUAAAC [Ex2 #61] (Eterna round: R97, puzzle: Exclusion 2)”, the “apparent KD of MS2 coat protein” value (input ligand: FMN 200 uM) was found to be 18.8 nM and the “apparent KD of MS2 coat protein” value (input ligand: none) was found to be 16.2 nM.
For “CCUUAGUUAGGAUAUAUUAAGGCCUCUGUGAGCGCAGGGCAAUAGAAGGAACAUGAGGAUCACCCAUGUAUGGA [Eternabot (L2) Solution 98] (Eterna round: R97, puzzle: Exclusion 4)”, in that order: 38.6 nM and 29.7 nM.
For “CAGCUGAAAGUGAGGAUAUCUAGAGCGAUAGCUCUAGAGAAGGCACAUGAGGAUCACCCAUGUGAUCACAGCUG [BmEx4/7-A4] (Eterna round: R97, puzzle: Brourd's mod of Exclusion 4)”, in that order: 1320 nM and 249 nM.
“UUCCUCGUUGUGAGGAUAUCGUCCGUGUUUUGUUACGAGAAGGCACAUGAGGAUCACCCAUGUUAUUUGAUUUU [JR_BMOE4_Sub074] (puzzle: Brourd's mod of Exclusion 4)”: the “apparent KD of MS2 coat protein” value by setting is: under setting [2], 83.6 nM; under setting [1], 36.8 nM; under setting [3], 37.9 nM.
“AUAAUGUGAGGAUAUCAGUAGUAUUGCCUCGGCAAUACUACUGAGAAGGCACAUGAGGAUCACCCAUGUGAUCA [E4/2-B2] (Eterna round: R97, puzzle: Exclusion 4)”: the “apparent KD of MS2 coat protein” value was found to be 29.3 nM (input ligand: FMN 200 uM) and 772 nM (input ligand: none).
For “GGUGAGCUAGGAUAUGCUUUGGGAACGCAUUCCUUCGAUAAACUUGAGGAUCACCCAAGUAGAAGGAGCUUGCC [salish99_ex2_r4_029] (Eterna round: R97, puzzle: Exclusion 2)”, in that order: 158 nM and 34 nM.
Consider “ACAUGAGGAUCACCCAUGUAAUCAUGAUGGCUGAUGUAGAGGUAGGAUAUGUGUGGCUUUCUAUCACAGAAGGACCAAGACUGG [Deportation 38 - Jieux - Exclusion NG 3] (Eterna round: R96, puzzle: Exclusion NG 3)”, for which the “apparent KD of MS2 coat protein” value (input ligand: FMN 200 uM) came out at 46.3 nM, the “apparent KD of MS2 coat protein” value under setting [4] amounted to 46.6 nM and the “apparent KD of MS2 coat protein” value (input ligand: none) was 59.8 nM.
Consider “GUGUAGUCAGGAUAUACAUGAGGAUCACCCAUGUGAAUAAGAUAGAAUAAGAUAAAGUGUAGAAGGGACAGUGU [Excluse me!!! 4 - Jieux - Exclusion 3] (puzzle: Exclusion 3)”, for which the “apparent KD of MS2 coat protein” value is, setting by setting: under setting [2], 33.8 nM; under setting [1], 34.1 nM; under setting [3], 35.9 nM.
Take “GUGAAGGUAGGAUAUACGAUAAUAUAGGGUAGAUAUAUAACACAUGAGGAUCACCCAUGUAGAAGGACCAAGUG [Mat - Exclusion 2 - Mod of my Tesla design - D61] (puzzle: Exclusion 2)”: the “apparent KD of MS2 coat protein” value under setting [1] is 46 nM.
“ACUGGUCGAGGAUAUACAUGAGGAUCACCCAUGUUGAUCAACUGCCGAUAGGCAGAAUGUAGAAGGCGACCAGU [E3/7-A2] (Eterna round: R97, puzzle: Exclusion 3)”: the “apparent KD of MS2 coat protein” value is, setting by setting: (input ligand: FMN 200 uM) 119 nM; (input ligand: none) 942 nM.
In the case of “GCGCAGGUAGGAUAUCGAGCUAAGAACAUGAGGAUCACCCAUGUGUUCGGUAGCCAACUUCGAGAAGGACCAAAUA [Ceati] (puzzle: Exclusion 5)”, the “apparent KD of MS2 coat protein” value is, setting by setting: under setting [2], 23.9 nM; under setting [1], 11.4 nM; under setting [3], 14.9 nM.
“AAUUAGUCAGGAUAUACAUGAGGAUCACCCAUGUAAACUUUUAGUUUAAUUUGAAUGUGUAGAAGGGACAUUAA [Ex3 #48] (Eterna round: R97, puzzle: Exclusion 3)”: the “apparent KD of MS2 coat protein” value by setting is: (input ligand: FMN 200 uM) 25.4 nM; (input ligand: none) 29.7 nM.
With “GCUUAUAGAGGAUAUACAGAUUAUUACAUGAGGAUCACCCAUGUUCUUCAAUGUAUAUAUGUAGAAGGCUAAGGAG [Mat - Exclusion 5 - JL Mod - D11] (Eterna round: R97, puzzle: Exclusion 5)”, the “apparent KD of MS2 coat protein” value (input ligand: FMN 200 uM) came to 175 nM and the “apparent KD of MS2 coat protein” value (input ligand: none) was 63.2 nM.
In the case of “UUUUAGAGAGGAUAUAUAAAGUGAAACAUGAGGAUCACCCAUGUAAUUUUAUGGAUGUAAAUAGAAGGCUCAUUUA [JL-ex5-3.01] (puzzle: Exclusion 5)”, the “apparent KD of MS2 coat protein” value under setting [1] is 34.3 nM.
Same read-out and setting: the same measure for “CCUCCACAUGAGGAUCACCCAUGUCAGGAUAUCGUGUGUGUUUUUUCGGUCUUUCGUGCGAGAAGGGACGUCUG (puzzle: Exclusion 1)”: 45.6 nM.
Take “UUUAACAAGCCAGAUCCUCACAUGAGGAUCACCCAUGUGCUCGUCUGAUUUUGUACUAUCACGUUUGUGAUAGUGUU [Level Boss var2-07] (puzzle: Sensor v3, turn-off variant 1)”: the “apparent KD of MS2 coat protein” value was 240 nM under setting [2], 19.1 nM under setting [1] and 124 nM under setting [3].
Take “GUGUACGGAGGAUAUAUAUGGGCAGCAUACGCUGCAGCUUCACAUGAGGAUCACCCAUGUAGAAGGCUGUACAC [Mat - Exclusion 2 - Mod of Hyphema - D100] (Eterna round: R96, puzzle: Exclusion 2)”: the “apparent KD of MS2 coat protein” value is, setting by setting: (input ligand: FMN 200 uM) 223 nM; under setting [4], 18.5 nM; (input ligand: none) 24.8 nM.
Regarding “UCCGGGUUUGUAGGAUAUAGUCUGCUUUGCAGACUAGAAGGACAUGAGGAUCACCCAUGUUGUGGAAAUUUGGGAUGUUCCUUU [random2] (Eterna round: R96, puzzle: Exclusion NG 1)”, the “apparent KD of MS2 coat protein” value reads like this: (input ligand: FMN 200 uM) 176 nM; under setting [4], 27.4 nM; (input ligand: none) 189 nM.
Take “AGGAAGCAAGGAUAUACGAGGAGAAGGUGUCCAUCUAAAUGACAUGAGGAUCACCCAUGUAGAAGGUGCGAGAA [JR_Exclu2_Sub050] (puzzle: Exclusion 2)”: the “apparent KD of MS2 coat protein” value under setting [2] was 112 nM, the “apparent KD of MS2 coat protein” value under setting [1] came out at 47.4 nM and the “apparent KD of MS2 coat protein” value under setting [3] worked out at 34.5 nM.
“AAAAAACAUGAGGAUCACCCAUGUGAGGAUAUCUGUAUUCAAUCCUCGGAUUGAAUACAGAGAAGGCACAUGGG [Ex1: 609] (Eterna round: R96, puzzle: Exclusion 1)”: the “apparent KD of MS2 coat protein” value (input ligand: FMN 200 uM) was 48.5 nM, the “apparent KD of MS2 coat protein” value under setting [4] is 29.2 nM and the “apparent KD of MS2 coat protein” value (input ligand: none) was 27.8 nM.
On the same counts, the results for “GCACUUGAACAUGAGGAUCACCCAUGUGUUUUUCUUGUUCGGCAGGAUAUCGUCUAGCGCCAGGACGAGAAGGGCCAAUAAAAG [Ratiarveed] (Eterna round: R96, puzzle: Exclusion NG 3)” are 77.8 nM, 61 nM and 141 nM.
On to “AGGUCACAUGAGGAUCACCCAUGUGAGGAUAUAGACUCAAGAGCUUCGGCUCUCAAGUUUAGAAGGCGCUAUGA [EX1 #51] (Eterna round: R97, puzzle: Exclusion 1)”, for which the “apparent KD of MS2 coat protein” value is, setting by setting: (input ligand: FMN 200 uM) 25.8 nM; (input ligand: none) 26.3 nM.
In the case of “GCGGACUUGAACGUGAGUUCAGAGACAUGAGGAUCACCCAUGUAGGAUAUCGAUUCGAAACGAAUCGAGAAGGGCAUGGUCCGC [JL denovo 14] (Eterna round: R96, puzzle: Exclusion NG 3)”, the “apparent KD of MS2 coat protein” value (input ligand: FMN 200 uM) is 37.4 nM, the “apparent KD of MS2 coat protein” value under setting [4] was 21.3 nM and the “apparent KD of MS2 coat protein” value (input ligand: none) came out at 28.8 nM.
For “UCUUACUGAGGAUAUACAUAGAUUUACAUGAGGAUCACCCAUGUUCCUCUAAGUAUAUAUGUAGAAGGCAGAAGAU [Mat - Exclusion 5 - JL Mod - D44] (Eterna round: R97, puzzle: Exclusion 5)”, the “apparent KD of MS2 coat protein” value stood at 329 nM (input ligand: FMN 200 uM) and 235 nM (input ligand: none).
For “GCCGUAAAUGUGAGGAUAUACCUAUGGAUACAUAGGUAGAAGGCACAUGAGGAUCACCCAUGUUCCAAAUCGGC [Eli bmx4 4.07] (Eterna round: R97, puzzle: Brourd's mod of Exclusion 4)”, the “apparent KD of MS2 coat protein” value (input ligand: FMN 200 uM) stood at 47.9 nM and the “apparent KD of MS2 coat protein” value (input ligand: none) was found to be 132 nM.
Turning to “ACAGUUUUGCAAGGAUAUCGUUUUAGUUUAUUACGAGAAGGUGCUUUAGUUAUUUCUUUGGGUUGACAUGAGGAUCACCCAUGU [JR_ExcNG1_Sub057] (Eterna round: R96, puzzle: Exclusion NG 1)”, the “apparent KD of MS2 coat protein” value (input ligand: FMN 200 uM) amounted to 136 nM, the “apparent KD of MS2 coat protein” value under setting [4] amounted to 144 nM and the “apparent KD of MS2 coat protein” value (input ligand: none) was determined as 148 nM.
Turning to “AAAUAGUCAGGAUAUACAUGAGGAUCACCCAUGUAAACUUUUAGUUUAAUUUGAAUGUGUAGAAGGGACAUAAA [Ex3 #50] (Eterna round: R97, puzzle: Exclusion 3)”, the “apparent KD of MS2 coat protein” value is, setting by setting: (input ligand: FMN 200 uM) 31.4 nM; (input ligand: none) 29.3 nM.
For “AGCGAGGCAGGAUAUACAUGAGGAUCACCCAUGUACUUGUAUGGCGUGGAACAUCGUGGUAGAAGGGCCGCGCC [EX3 #79] (Eterna round: R97, puzzle: Exclusion 3)”, in that order: 33.5 nM and 23.7 nM.
For “CUUUACAAGCUAAGAUCCUACAUGAGGAUCACCCAUGUGGUCCGGUGACGUGAGUCACCGGACUUAGCUCGUCUUGC [salish99_S_TOV1_R5_094] (Eterna round: R97, puzzle: Sensor, turn-off variant 1)”, in that order: 31.2 nM and 36.8 nM.
